Data from publication PMC7092467, “Transaldolase in Bacillus methanolicus: biochemical characterization and biological role in ribulose monophosphate cycle” (BMC Microbiology, 2020).

How the values were obtained:
[1] = molecular target: Recreated full-length transaldolase of Bacillus methanolicus MGA3 (Ta^MGA3rec), C-terminal hexahistidine-tagged (Bacillus methanolicus MGA3); experiment: SEC; gel filtration of 1 mg purified Ta dissolved in 2 ml of 20 mM Tris-HCl, pH 7.8, with Ta activity assays of the eluted fractions; eluted in a single fraction corresponding to 54 kDa
[2] = molecular target: the molecule itself; experiment: as above
purified protein = substrate: O=C[C@H](O)[C@H](O)COP(=O)(O)O; experiment: purified protein; format: biochemical, Bacillus methanolicus; settings: co-substrate F6P, 50 mM Tris-HCl pH 7.8, 50 °C, 0.25 mM NADH

Row | Molecule | stoichiometry N [1] | stoichiometry N [2] | Km (purified protein) [µM] | Vmax (purified protein) [U/mg] | kcat (purified protein) [s⁻¹] | kcat/Km (purified protein) [s^− 1 mM^− 1]
1 | Recreated full-length transaldolase of Bacillus methanolicus MGA3 (Ta^MGA3rec), C-terminal hexahistidine-tagged (enzyme) | 2 | – | – | – | – | –
2 | Transaldolase of Bacillus methanolicus PB1 (Ta^PB1), C-terminal hexahistidine-tagged (enzyme, UniProt I3E1B6 1-229, looked up, Transaldolase (Ta) of Bacillus methanolicus PB1, UniProt I3E1B6; also called PB1 Ta protein; PB1 Ta gene product; source: E. coli BL21 (DE3), pET28b-ta^PB1, purified (Ni-NTA chromatography)) MIQNSIQRNKGGVIIKFFIDTANIDEIREAHSLGILSGVTTNPSLVAKEKNVKFHDRLREIAGLVPGSVSAEVIALDTEGMIKEGRELASIAPNITVKVPMTPESLKAVHALSKEGIKTNVTLIFSANQALLAARAGATYVSPFLGRLDDIGHNGLELISTIADIFAIHQIKTEIIAASIRHPQHVTEAALKGAHIATLPYKVILQLFKHPLTDKGIEAFLADWKKRGQ | – | 2 | 2500 | 8.9 | 4 | 1.6
